Measurements published in the RNAGym collection of RNA variant scans (doi:10.7554/elife.90254).

B1: OR4K15 (parent)
chain: GUUAACGGUCAUAGGCCAUGGAAACUAGGAGCACCAUUUCGCUGCCAGUGAAGAAAUGAACAAAGAAAAUCUGGGCCAGGCAGGCAUCAAAAGAAAUAGUCUUGCGCUCAACCAGAAAGUCUGUAAUCAUUUUAAGGGUA

Variants of: B1
Test: self-cleavage, relative activity (ratio to wild type); higher = more cleavage; in vitro, sequencing; the parent is a self-cleaving ribozyme

Variant | self-cleavage
A27U U43G | 1.64
A24G U139A | 1.53
A24G U139G | 1.86
A24G U139C | 0.99
G29A A125G | 0.24
U26C A140G | 1.4
A27C A116U | 0.23
A24U A110G | 0.13
U26C U102C | 1.65
A27U A96G | 1.6
G28A A78U | 0.18
A24U A82G | 0.41
U26C A68G | 1.26
U26A U100A | 0.98
U26C G84A | 1.84
A27U G99A | 0.6
A27U A91G | 1.19
G28A A86U | 1.88
A27G A116G | 0.99
A30C A111G | 0.07
A30G A47U | 1.27
G29A U139C | 2.53
G29A U139G | 0.86
C25U A66C | 1.33

Variant | self-cleavage
A27G A33G | 0.96
A27G A33U | 1.16
U26C A60G | 1.61
A24U A98G | 0.45
A27G A30G | 0.69
A27C U87A | 1.13
U26C A36G | 1.47
C25U U120A | 2.95
A27U U102C | 2.12
U26A G44C | 0.71
A27G A78G | 0.3
U26A U102C | 1.69
U26C A89G | 1.35
C25G A30G | 0.59
A27G A96U | 1.83
C25U A62G | 0.59
U26A A96G | 1.39
C25G A118G | 0.35
U26C U100C | 1.45
A30C U120C | 0.69
A30C U38C | 1.02
G28U U49A | 2.04
G28A A129G | 0.99
G28A A68G | 2.39

Variant | self-cleavage
C25U U70C | 0.35
A27G U120C | 0.68
A24U U43A | 1.68
U26A C34U | 1.99
A27C A69G | 1.34
A30C A116G | 0.89
G29A U124A | 0.77
A27G A114G | 0.27
A24U A66G | 1.66
G29C C42U | 1.06
A27G A90U | 1
A27G U87C | 1.02
A27G U87A | 1.39
A27C A33U | 2.06
A27U A30G | 0.38
G28U U100A | 0.25
G28U U100C | 2.35
U26C U122C | 0.7
G29U A63G | 2.9
A27G A68G | 1.13
G28A A98G | 0.39
U26A U132C | 0.9
A30C A125G | 0.31
A24U G123A | 1.3

Variant | self-cleavage
G29C U108A | 0.02
A30C A68G | 0.67
A27U A52G | 1.91
U26C C77U | 1.77
A30C A96G | 1.43
U26C U120C | 0.85
G29A A117G | 1.77
A30G A55G | 1.14
A24U A36C | 1.63
U26C G136A | 2.02
U26C A55G | 0.31
A27G U103C | 0.76
U26C G44A | 1.07
C25G A27U | 1.45
C25U A54U | 1.33
G28A | 1.09
G28U | 0.74
G28C | 0.93
C25U A63G | 0.37
G29A U131C | 0.66
U26A U39A | 0.92
U26C A69G | 1.46
C25U A89G | 1.27
A27U A68G | 1.61

Variant | self-cleavage
A27G G48U | 0.5
A27G A36G | 1.26
U26A A129G | 1.36
G28A U97C | 0.59
U26C A126U | 1.29
G29A A96G | 2.13
A27U G53A | 1.86
U26G A66G | 1.09
A27G A64G | 1.27
G28A U131C | 0.99
A27G U139A | 1.27
G28A A110G | 0.17
A30G A33G | 1.17
C25U C109U | 0.48
C25A U122C | 0.72
A27G U102A | 0.63
A24U A27U | 1.14
A27U A118G | 1.21
A27G A111G | 0.03
C25U A114G | 0.37
A27G A54U | 1.03
U26A A98G | 0.3
U26G A52C | 0.7
G29A A78G | 0.28

Variant | self-cleavage
A27C A67U | 1.29
C25U U102A | 0.79
A24U C128A | 1.85
A27G U38C | 1.12
A24U A78C | 0.29
C25U G136A | 1.84
A27G U131C | 1.67
C25U A91U | 1.13
C25U U72A | 0.28
A24G U72A | 0.28
A24G U72G | 0.26
U26A U120G | 1.26
C25U A47G | 1.76
C25U U57C | 1.42
A30C A51U | 2.04
U26A A47G | 0.94
A27U A116G | 0.63
U26C A134G | 1.05
G28A U39C | 2.09
C25U U131C | 1.57
A24G U124A | 0.74
A24G U124C | 0.73
G28A A52G | 1.9
U26C A59G | 0.96

Variant | self-cleavage
A27G G28A | 0.78
A24G U122G | 2.31
A30G A54G | 1.21
G28U A68G | 1.22
G28A A89U | 1.38
U26A A92G | 0.89
C25U A67G | 1.55
A27G U39A | 1.42
A27G U39C | 1.14
C25A A56G | 1.41
U26C A96G | 1.5
C25A A36G | 1.03
G28A U57C | 0.4
U26C A27G | 0.75
U26C A27U | 1.2
C25U A135G | 1.44
G28U A111U | 0.3
U26G A63G | 2.09
U26C A110G | 0.08
U26C A110C | 0.25
U26C A54G | 1.61
C25U A86C | 0.72
U26C A82U | 0.28
